The text below walks through data of paper doi:10.1101/2025.07.09.663943, “A multiplex extracellular interactome screening method employing high-avidity nanoparticles” (bioRxiv, 2025).

Common to all, as to test: Multiplex Interactome Assay (MPIA; bead-based, Luminex FLEXMAP 3D); runs D1-D4; baits ECD-hFc-ST3 on dimeric SC3 (SpyCatcher003-Cys) MagPlex beads, pooled; one prey a well: ECD-hFc-ST3 on 60-mer SC3-mi3 nanoparticles with GFP-V5-HA-ST3 adapter, 300 nM ECD where possible; 2 h at room temperature, 1% casein in 1x PBS; mouse anti-V5 and PE goat anti-mouse; read-out MFI; hit = seen in three of four runs

The target in one assay is PVR ECD-hFc-ST3 (human) (UniProt P15151).
The target of the next assay is WFIKKN2-hFc-ST3 (human) (UniProt Q8TEU8).
For another assay, the target named is T1, AXL ECD-hFc-ST3 (human, UniProt P30530 26-451).
T1 construct: AXL (tyrosine-protein kinase receptor UFO), human, extracellular domain; Dimeric ECD-hFc-ST3 fusion behind the influenza HA signal peptide; prey on SC3-mi3 nanoparticles, bait on SC3 beads; source: Expi293, transfected, purified from supernatant (Ni-NTA / HisTrapFF); not shown: Fc (human IgG1, DAPA mutations), C-terminal, kept; FLAG, C-terminal, kept; SpyTag003, C-terminal, kept
T1 sequence (looked up): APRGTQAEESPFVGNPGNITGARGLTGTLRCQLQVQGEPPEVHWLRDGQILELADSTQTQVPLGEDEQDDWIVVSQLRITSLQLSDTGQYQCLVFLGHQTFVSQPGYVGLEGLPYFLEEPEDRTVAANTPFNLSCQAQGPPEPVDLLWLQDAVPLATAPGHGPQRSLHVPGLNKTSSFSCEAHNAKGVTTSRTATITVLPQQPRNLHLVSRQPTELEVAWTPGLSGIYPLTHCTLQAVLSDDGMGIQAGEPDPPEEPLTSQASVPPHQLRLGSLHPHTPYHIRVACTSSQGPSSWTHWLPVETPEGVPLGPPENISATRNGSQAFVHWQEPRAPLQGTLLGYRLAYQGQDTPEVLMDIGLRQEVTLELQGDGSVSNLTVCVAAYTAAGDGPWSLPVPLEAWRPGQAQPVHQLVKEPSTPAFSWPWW
The conditions noted are these: both partners purified.

A further assay deals with T2, IGFBPL1-hFc-ST3 (human, UniProt Q8WX77 26-278).
T2 construct: Dimeric hFc-ST3 fusion behind the influenza HA signal peptide; prey on SC3-mi3 nanoparticles, bait on SC3 beads; source: Expi293, transfected, purified from supernatant (Ni-NTA / HisTrapFF); not shown: Fc (human IgG1, DAPA mutations), C-terminal, kept; FLAG, C-terminal, kept; SpyTag003, C-terminal, kept
T2 sequence (looked up): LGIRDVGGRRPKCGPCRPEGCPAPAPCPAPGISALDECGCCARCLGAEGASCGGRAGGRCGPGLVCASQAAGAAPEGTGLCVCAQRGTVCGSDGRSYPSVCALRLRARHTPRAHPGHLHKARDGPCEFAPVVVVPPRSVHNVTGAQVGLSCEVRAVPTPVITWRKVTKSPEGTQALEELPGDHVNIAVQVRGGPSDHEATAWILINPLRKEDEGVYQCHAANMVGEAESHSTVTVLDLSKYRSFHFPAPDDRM
The conditions noted are these: both partners purified.

A further assay deals with T3, IL6R ECD-hFc-ST3 (human, UniProt P08887 20-365).
T3 construct: IL6R (interleukin-6 receptor subunit alpha), human, extracellular domain; Dimeric ECD-hFc-ST3 fusion behind the influenza HA signal peptide; prey on SC3-mi3 nanoparticles, bait on SC3 beads; source: Expi293, transfected, purified from supernatant (Ni-NTA / HisTrapFF); not shown: Fc (human IgG1, DAPA mutations), C-terminal, kept; FLAG, C-terminal, kept; SpyTag003, C-terminal, kept
T3 sequence (looked up): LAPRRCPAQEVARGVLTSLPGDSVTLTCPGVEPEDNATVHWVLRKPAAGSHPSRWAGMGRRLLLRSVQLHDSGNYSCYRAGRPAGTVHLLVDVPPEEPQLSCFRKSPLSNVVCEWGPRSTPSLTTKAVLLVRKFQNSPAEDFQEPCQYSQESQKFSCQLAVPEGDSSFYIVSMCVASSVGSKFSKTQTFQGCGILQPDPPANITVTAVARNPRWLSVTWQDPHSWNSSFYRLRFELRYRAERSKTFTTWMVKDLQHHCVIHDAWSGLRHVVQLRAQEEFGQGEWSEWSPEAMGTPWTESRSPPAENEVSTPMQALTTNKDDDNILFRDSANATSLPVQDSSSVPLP
The conditions noted are these: both partners purified.

Assay [1] has as its target PuncE11 ECD-hFc-ST3 (human) (UniProt Q8TDY8).

Chain of PVR ECD-hFc-ST3 (human) (P15151 21-343): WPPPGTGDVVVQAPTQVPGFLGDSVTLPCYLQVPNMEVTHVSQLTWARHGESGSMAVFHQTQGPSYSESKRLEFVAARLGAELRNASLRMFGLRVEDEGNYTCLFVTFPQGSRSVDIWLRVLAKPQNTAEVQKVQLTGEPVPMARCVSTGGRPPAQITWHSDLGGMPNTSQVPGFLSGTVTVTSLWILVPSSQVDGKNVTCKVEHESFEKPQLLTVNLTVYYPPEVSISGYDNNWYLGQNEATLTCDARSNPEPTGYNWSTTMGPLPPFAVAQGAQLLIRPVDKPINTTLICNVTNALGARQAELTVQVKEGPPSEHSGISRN

With “KIR2DL5 ECD-hFc-ST3 (from UniProt Q8N109 22-238) (Fc fusion)”, in the assay with PVR ECD-hFc-ST3 (human), the MFI was 5360.
“PuncE11 ECD-hFc-ST3 (from UniProt Q8TDY8 25-957) (Fc fusion)”: in the assay with WFIKKN2-hFc-ST3 (human), the MFI is over 7000.

B1: ILRL1 ECD-hFc-ST3 (Fc fusion, human, UniProt Q01638 19-328, looked up)
chain: KFSKQSWGLENEALIVRCPRQGKPSYTVDWYYSQTNKSIPTQERNRVFASGQLLKFLPAAVADSGIYTCIVRSPTFNRTGYANVTIYKKQSDCNVPDYLMYSTVSGSEKNSKIYCPTIDLYNWTAPLEWFKNCQALQGSRYRAHKSFLVIDNVMTEDAGDYTCKFIHNENGANYSVTATRSFTVKDEQGFSLFPVIGAPAQNEIKEVEIGKNANLTCSACFGKGTQFLAAVLWQLNGTKITDFGEPRIQQEEGQNQSFSNGLACLDMVLRIADVKEEDLLLQYDCLALNLHGLRRHTVRLSRKNPIDHHS
notes: The label ILRL1 is printed once only; Dimeric ECD-hFc-ST3 fusion behind the influenza HA signal peptide; prey on SC3-mi3 nanoparticles, bait on SC3 beads; source: Expi293, transfected, purified from supernatant (Ni-NTA / HisTrapFF); not shown: Fc (human IgG1, DAPA mutations), C-terminal, kept; FLAG, C-terminal, kept; SpyTag003, C-terminal, kept
Turning to B1, the MFI with AXL ECD-hFc-ST3 was determined as 5780.

B2: DCC ECD-hFc-ST3 (Fc fusion, human, UniProt P43146 26-1097, looked up)
chain: HLQVTGFQIKAFTALRFLSEPSDAVTMRGGNVLLDCSAESDRGVPVIKWKKDGIHLALGMDERKQQLSNGSLLIQNILHSRHHKPDEGLYQCEASLGDSGSIISRTAKVAVAGPLRFLSQTESVTAFMGDTVLLKCEVIGEPMPTIHWQKNQQDLTPIPGDSRVVVLPSGALQISRLQPGDIGIYRCSARNPASSRTGNEAEVRILSDPGLHRQLYFLQRPSNVVAIEGKDAVLECCVSGYPPPSFTWLRGEEVIQLRSKKYSLLGGSNLLISNVTDDDSGMYTCVVTYKNENISASAELTVLVPPWFLNHPSNLYAYESMDIEFECTVSGKPVPTVNWMKNGDVVIPSDYFQIVGGSNLRILGVVKSDEGFYQCVAENEAGNAQTSAQLIVPKPAIPSSSVLPSAPRDVVPVLVSSRFVRLSWRPPAEAKGNIQTFTVFFSREGDNRERALNTTQPGSLQLTVGNLKPEAMYTFRVVAYNEWGPGESSQPIKVATQPELQVPGPVENLQAVSTSPTSILITWEPPAYANGPVQGYRLFCTEVSTGKEQNIEVDGLSYKLEGLKKFTEYSLRFLAYNRYGPGVSTDDITVVTLSDVPSAPPQNVSLEVVNSRSIKVSWLPPPSGTQNGFITGYKIRHRKTTRRGEMETLEPNNLWYLFTGLEKGSQYSFQVSAMTVNGTGPPSNWYTAETPENDLDESQVPDQPSSLHVRPQTNCIIMSWTPPLNPNIVVRGYIIGYGVGSPYAETVRVDSKQRYYSIERLESSSHYVISLKAFNNAGEGVPLYESATTRSITDPTDPVDYYPLLDDFPTSVPDLSTPMLPPVGVQAVALTHDAVRVSWADNSVPKNQKTSEVRLYTVRWRTSFSASAKYKSEDTTSLSYTATGLKPNTMYEFSVMVTKNRRSSTWSMTAHATTYEAAPTSAPKDLTVITREGKPRAVIVSWQPPLEANGKITAYILFYTLDKNIPIDDWIMETISGDRLTHQIMDLNLDTMYYFRIQARNSKGVGPLSDPILFRTLKVEHPDKMANDQGRHGDGGYWPVDTNLIDRSTLNEPPIGQMHPPHGSVTPQKNSN
notes: DCC (netrin receptor DCC), human, extracellular domain; Dimeric ECD-hFc-ST3 fusion behind the influenza HA signal peptide; prey on SC3-mi3 nanoparticles, bait on SC3 beads; source: Expi293, transfected, purified from supernatant (Ni-NTA / HisTrapFF); not shown: Fc (human IgG1, DAPA mutations), C-terminal, kept; FLAG, C-terminal, kept; SpyTag003, C-terminal, kept
As to B2, the MFI with IGFBPL1-hFc-ST3 was over 7000.

B3: TIGIT ECD-hFc-ST3 (Fc fusion, human, UniProt Q495A1 22-141, looked up)
chain: MMTGTIETTGNISAEKGGSIILQCHLSSTTAQVTQVNWEQQDQLLAICNADLGWHISPSFKDRVAPGPGLGLTLQSLTVNDTGEYFCIYHTYPDGTYTGRIFLEVLESSVAEHGARFQIP
notes: TIGIT, human, extracellular domain; Dimeric ECD-hFc-ST3 fusion behind the influenza HA signal peptide; prey on SC3-mi3 nanoparticles, bait on SC3 beads; source: Expi293, transfected, purified from supernatant (Ni-NTA / HisTrapFF); not shown: Fc (human IgG1, DAPA mutations), C-terminal, kept; FLAG, C-terminal, kept; SpyTag003, C-terminal, kept
Turning to B3, the binding result with IL6R ECD-hFc-ST3 is given as “binds”.

B4: WFIKKN2-hFc-ST3 (Fc fusion)
chain: LPPIRYSHAGICPNDMNPNLWVDAQSTCRRECETDQECETYEKCCPNVCGTKSCVAARYMDVKGKKGPVGMPKEATCDHFMCLQQGSECDIWDGQPVCKCKDRCEKEPSFTCASDGLTYYNRCYMDAEACSKGITLAVVTCRYHFTWPNTSPPPPETTMHPTTASPETPELDMAAPALLNNPVHQSVTMGETVSFLCDVVGRPRPEITWEKQLEDRENVVMRPNHVRGNVVVTNIAQLVIYNAQLQDAGIYTCTARNVAGVLRADFPLSVVRGHQAAATSESSPNGTAFPAAECLKPPDSEDCGEEQTRWHFDAQANNCLTFTFGHCHRNLNHFETYEACMLACMSGPLAACSLPALQGPCKAYAPRWAYNSQTGQCQSFVYGGCEGNGNNFESREACEESCPFPRGNQRCRACKPRQKLVTSFCRSDFVILGRVSELTEEPDSGRALVTVDEVLKDEKMGLKFLGQEPLEVTLLHVDWACPCPNVTVSEMPLIIMGEVDGGMAMLRPDSFVGASSARRVRKLREVMHKKTCDVLKEFLGLH
For B4, the MFI in assay [1] is over 7000.
